Experimental data from paper PMC9482650, “Quantitative fragmentomics allow affinity mapping of interactomes” (Nature Communications, 2022).

T1: APBA1_1, Q02410
T1 sequence (Q02410 651-752, limits assumed, looked up): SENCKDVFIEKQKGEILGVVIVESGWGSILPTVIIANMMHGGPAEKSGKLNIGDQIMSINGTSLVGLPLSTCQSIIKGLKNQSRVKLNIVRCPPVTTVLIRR

T2: NHERF3_1, Q5T2W1
T2 sequence (Q5T2W1 4-100, limits assumed, looked up): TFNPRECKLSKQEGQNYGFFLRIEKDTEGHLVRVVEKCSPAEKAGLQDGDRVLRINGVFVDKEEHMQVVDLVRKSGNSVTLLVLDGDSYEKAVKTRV

T3: LNX2_2, Q8N448
T3 sequence (Q8N448 334-432, limits assumed, looked up): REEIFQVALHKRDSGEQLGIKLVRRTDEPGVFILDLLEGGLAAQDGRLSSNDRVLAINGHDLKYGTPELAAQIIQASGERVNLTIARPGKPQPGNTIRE

T4: DLG3_2, Q92796
T4 sequence (Q92796 221-321, limits assumed, looked up): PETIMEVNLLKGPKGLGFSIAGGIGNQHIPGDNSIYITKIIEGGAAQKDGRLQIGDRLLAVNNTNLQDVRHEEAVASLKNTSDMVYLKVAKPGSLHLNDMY

T5: GRIP1_5, Q9Y3R0
T5 sequence (Q9Y3R0 568-668, limits assumed, looked up): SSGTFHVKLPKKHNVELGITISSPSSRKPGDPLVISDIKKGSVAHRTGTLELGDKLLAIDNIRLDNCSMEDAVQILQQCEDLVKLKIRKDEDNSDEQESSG

T6: APBA2_1, Q99767
T6 sequence (Q99767 563-664, limits assumed, looked up): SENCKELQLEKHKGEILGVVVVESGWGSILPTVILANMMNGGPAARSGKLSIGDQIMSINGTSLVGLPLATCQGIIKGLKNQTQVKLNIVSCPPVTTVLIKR

T7: APBA1_2, Q02410
T7 sequence (Q02410 742-832, limits assumed, looked up): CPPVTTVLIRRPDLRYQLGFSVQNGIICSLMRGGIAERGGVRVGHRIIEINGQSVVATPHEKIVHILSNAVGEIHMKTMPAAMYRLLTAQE

T8: RHPN1, Q8TCX5
T8 sequence (Q8TCX5 508-602, limits assumed, looked up): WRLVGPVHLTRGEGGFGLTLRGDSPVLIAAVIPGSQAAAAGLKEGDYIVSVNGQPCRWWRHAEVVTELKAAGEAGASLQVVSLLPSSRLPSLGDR

T9: NHERF3_3, Q5T2W1
T9 sequence (Q5T2W1 238-333, limits assumed, looked up): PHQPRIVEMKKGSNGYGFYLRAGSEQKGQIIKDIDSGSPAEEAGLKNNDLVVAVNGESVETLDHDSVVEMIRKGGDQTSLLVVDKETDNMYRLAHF

T10: GRIP1_3, Q9Y3R0
T10 sequence (Q9Y3R0 247-346, limits assumed, looked up): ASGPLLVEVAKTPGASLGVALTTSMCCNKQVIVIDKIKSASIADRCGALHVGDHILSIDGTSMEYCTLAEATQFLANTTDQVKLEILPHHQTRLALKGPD

T11: SYNJ2BP, P57105
T11 sequence (P57105 8-110, limits assumed, looked up): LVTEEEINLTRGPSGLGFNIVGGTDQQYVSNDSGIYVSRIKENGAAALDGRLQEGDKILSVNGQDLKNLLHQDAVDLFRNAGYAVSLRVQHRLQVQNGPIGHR

T12: MPP2, Q14168
T12 sequence (Q14168 180-250, limits assumed, looked up): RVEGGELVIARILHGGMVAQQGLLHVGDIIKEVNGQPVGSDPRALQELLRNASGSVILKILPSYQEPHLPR


target: HTRA1, Q92743; experiment: holdup assay; parameters: key: below the threshold = too weak to quantify, mostly under pKd 3.1 to 4; settings: plain residues with an end cap or a label only (N-terminal biotin on a linker: ado-ado)
Sequence (Q92743 360-477): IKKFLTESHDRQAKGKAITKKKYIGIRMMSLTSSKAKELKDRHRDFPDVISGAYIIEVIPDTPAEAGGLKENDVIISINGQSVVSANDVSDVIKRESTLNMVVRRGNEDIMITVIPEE

Row | Binder | pKd
1 | QKNKDREYYV [NRXN3, Q9HDB5] | 5.49
2 | THREVKFTSL [CD46, P15529] | 3.89

target: GRID2IP_2, A4D2P6; experiment: holdup assay; parameters: key: below the threshold = too weak to quantify, mostly under pKd 3.1 to 4; settings: plain residues with an end cap or a label only (N-terminal biotin on a linker: ado-ado)
Sequence (A4D2P6 272-370): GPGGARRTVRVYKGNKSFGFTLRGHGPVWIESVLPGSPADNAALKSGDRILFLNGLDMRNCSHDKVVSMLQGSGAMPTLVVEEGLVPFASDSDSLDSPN

Row | Binder | pKd
3 | QKNKDREYYV [NRXN3, Q9HDB5] | 3.52
4 | THREVKFTSL [CD46, P15529] | 4.95

target: IL16_3, Q14005; experiment: holdup assay; parameters: key: below the threshold = too weak to quantify, mostly under pKd 3.1 to 4; settings: plain residues with an end cap or a label only (N-terminal biotin on a linker: ado-ado)
Sequence (Q14005 1107-1207): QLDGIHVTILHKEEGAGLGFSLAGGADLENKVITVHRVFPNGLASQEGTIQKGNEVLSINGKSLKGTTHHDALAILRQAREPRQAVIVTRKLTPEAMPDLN

Row | Binder | pKd
5 | QKNKDREYYV [NRXN3, Q9HDB5] | below the threshold
6 | THREVKFTSL [CD46, P15529] | below the threshold

target: GRIP2_4, Q9C0E4; experiment: holdup assay; parameters: key: below the threshold = too weak to quantify, mostly under pKd 3.1 to 4; settings: plain residues with an end cap or a label only (N-terminal biotin on a linker: ado-ado)
Sequence (Q9C0E4 446-548): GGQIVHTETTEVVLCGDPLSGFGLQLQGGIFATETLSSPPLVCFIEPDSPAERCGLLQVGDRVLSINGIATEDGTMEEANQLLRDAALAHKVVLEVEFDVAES

Row | Binder | pKd
7 | QKNKDREYYV [NRXN3, Q9HDB5] | below the threshold
8 | THREVKFTSL [CD46, P15529] | below the threshold

target: PDLIM1, O00151; experiment: holdup assay; parameters: key: below the threshold = too weak to quantify, mostly under pKd 3.1 to 4; settings: plain residues with an end cap or a label only (N-terminal biotin on a linker: ado-ado)
Sequence (O00151 1-87): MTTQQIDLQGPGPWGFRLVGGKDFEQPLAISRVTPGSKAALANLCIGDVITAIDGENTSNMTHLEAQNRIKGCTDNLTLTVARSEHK

Row | Binder | pKd
9 | QKNKDREYYV [NRXN3, Q9HDB5] | below the threshold
10 | THREVKFTSL [CD46, P15529] | below the threshold

target: T1, APBA1_1, Q02410; experiment: holdup assay; parameters: key: below the threshold = too weak to quantify, mostly under pKd 3.1 to 4; settings: plain residues with an end cap or a label only (N-terminal biotin on a linker: ado-ado)

Row | Binder | pKd
11 | QKNKDREYYV [NRXN3, Q9HDB5] | below the threshold
12 | THREVKFTSL [CD46, P15529] | below the threshold

target: DLG4_1, P78352; experiment: holdup assay; parameters: key: below the threshold = too weak to quantify, mostly under pKd 3.1 to 4; settings: plain residues with an end cap or a label only (N-terminal biotin on a linker: ado-ado)
Sequence (P78352 62-152): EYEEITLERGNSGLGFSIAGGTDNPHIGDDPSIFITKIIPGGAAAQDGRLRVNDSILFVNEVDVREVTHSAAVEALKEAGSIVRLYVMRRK

Row | Binder | pKd
13 | QKNKDREYYV [NRXN3, Q9HDB5] | below the threshold
14 | THREVKFTSL [CD46, P15529] | below the threshold

target: T2, NHERF3_1, Q5T2W1; experiment: holdup assay; parameters: key: below the threshold = too weak to quantify, mostly under pKd 3.1 to 4; settings: plain residues with an end cap or a label only (N-terminal biotin on a linker: ado-ado)

Row | Binder | pKd
15 | QKNKDREYYV [NRXN3, Q9HDB5] | 4.61
16 | THREVKFTSL [CD46, P15529] | 5.18

target: PICK1, Q9NRD5; experiment: holdup assay; parameters: key: below the threshold = too weak to quantify, mostly under pKd 3.1 to 4; settings: plain residues with an end cap or a label only (N-terminal biotin on a linker: ado-ado)
Sequence (Q9NRD5 17-115): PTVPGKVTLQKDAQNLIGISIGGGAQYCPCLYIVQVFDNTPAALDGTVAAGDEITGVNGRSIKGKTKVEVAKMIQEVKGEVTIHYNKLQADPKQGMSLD

Row | Binder | pKd
17 | QKNKDREYYV [NRXN3, Q9HDB5] | below the threshold
18 | THREVKFTSL [CD46, P15529] | 4.08

target: GRIP2_5, Q9C0E4; experiment: holdup assay; parameters: key: below the threshold = too weak to quantify, mostly under pKd 3.1 to 4; settings: plain residues with an end cap or a label only (N-terminal biotin on a linker: ado-ado)
Sequence (Q9C0E4 544-642): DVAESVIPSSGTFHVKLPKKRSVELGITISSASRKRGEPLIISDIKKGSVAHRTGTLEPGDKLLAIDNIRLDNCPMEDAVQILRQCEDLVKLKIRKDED

Row | Binder | pKd
19 | QKNKDREYYV [NRXN3, Q9HDB5] | below the threshold
20 | THREVKFTSL [CD46, P15529] | below the threshold

target: T3, LNX2_2, Q8N448; experiment: holdup assay; parameters: key: below the threshold = too weak to quantify, mostly under pKd 3.1 to 4; settings: plain residues with an end cap or a label only (N-terminal biotin on a linker: ado-ado)

Row | Binder | pKd
21 | QKNKDREYYV [NRXN3, Q9HDB5] | 4.81
22 | THREVKFTSL [CD46, P15529] | below the threshold

target: T4, DLG3_2, Q92796; experiment: holdup assay; parameters: key: below the threshold = too weak to quantify, mostly under pKd 3.1 to 4; settings: plain residues with an end cap or a label only (N-terminal biotin on a linker: ado-ado)

Row | Binder | pKd
23 | QKNKDREYYV [NRXN3, Q9HDB5] | 3.65
24 | THREVKFTSL [CD46, P15529] | 4.23

target: T5, GRIP1_5, Q9Y3R0; experiment: holdup assay; parameters: key: below the threshold = too weak to quantify, mostly under pKd 3.1 to 4; settings: plain residues with an end cap or a label only (N-terminal biotin on a linker: ado-ado)

Row | Binder | pKd
25 | QKNKDREYYV [NRXN3, Q9HDB5] | below the threshold
26 | THREVKFTSL [CD46, P15529] | below the threshold

target: MAGI1_1, Q96QZ7; experiment: holdup assay; parameters: key: below the threshold = too weak to quantify, mostly under pKd 3.1 to 4; settings: plain residues with an end cap or a label only (N-terminal biotin on a linker: ado-ado)
Sequence (Q96QZ7 1-106): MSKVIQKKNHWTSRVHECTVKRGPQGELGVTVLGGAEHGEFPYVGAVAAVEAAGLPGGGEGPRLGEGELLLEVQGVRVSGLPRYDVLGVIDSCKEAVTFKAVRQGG

Row | Binder | pKd
27 | QKNKDREYYV [NRXN3, Q9HDB5] | below the threshold
28 | THREVKFTSL [CD46, P15529] | below the threshold

target: FRMPD3, Q5JV73; experiment: holdup assay; parameters: key: below the threshold = too weak to quantify, mostly under pKd 3.1 to 4; settings: plain residues with an end cap or a label only (N-terminal biotin on a linker: ado-ado)
Sequence (Q5JV73 12-100): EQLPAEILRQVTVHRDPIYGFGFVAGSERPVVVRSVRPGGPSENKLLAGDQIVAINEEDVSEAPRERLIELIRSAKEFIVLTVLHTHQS

Row | Binder | pKd
29 | QKNKDREYYV [NRXN3, Q9HDB5] | 4.03
30 | THREVKFTSL [CD46, P15529] | below the threshold

target: T6, APBA2_1, Q99767; experiment: holdup assay; parameters: key: below the threshold = too weak to quantify, mostly under pKd 3.1 to 4; settings: plain residues with an end cap or a label only (N-terminal biotin on a linker: ado-ado)

Row | Binder | pKd
31 | QKNKDREYYV [NRXN3, Q9HDB5] | below the threshold
32 | THREVKFTSL [CD46, P15529] | below the threshold

target: T7, APBA1_2, Q02410; experiment: holdup assay; parameters: key: below the threshold = too weak to quantify, mostly under pKd 3.1 to 4; settings: plain residues with an end cap or a label only (N-terminal biotin on a linker: ado-ado)

Row | Binder | pKd
33 | QKNKDREYYV [NRXN3, Q9HDB5] | 3.99
34 | THREVKFTSL [CD46, P15529] | 3.64

target: T8, RHPN1, Q8TCX5; experiment: holdup assay; parameters: key: below the threshold = too weak to quantify, mostly under pKd 3.1 to 4; settings: plain residues with an end cap or a label only (N-terminal biotin on a linker: ado-ado)

Row | Binder | pKd
35 | QKNKDREYYV [NRXN3, Q9HDB5] | below the threshold
36 | THREVKFTSL [CD46, P15529] | 4.48

target: Inadl_8, Q8NI35; experiment: holdup assay; parameters: key: below the threshold = too weak to quantify, mostly under pKd 3.1 to 4; settings: plain residues with an end cap or a label only (N-terminal biotin on a linker: ado-ado)
Sequence (Q8NI35 1425-1530): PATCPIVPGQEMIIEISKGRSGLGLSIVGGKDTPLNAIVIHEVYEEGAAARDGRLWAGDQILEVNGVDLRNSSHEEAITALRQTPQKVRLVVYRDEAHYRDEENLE

Row | Binder | pKd
37 | QKNKDREYYV [NRXN3, Q9HDB5] | 3.48
38 | THREVKFTSL [CD46, P15529] | 3.53

target: DLG4_2, P78352; experiment: holdup assay; parameters: key: below the threshold = too weak to quantify, mostly under pKd 3.1 to 4; settings: plain residues with an end cap or a label only (N-terminal biotin on a linker: ado-ado)
Sequence (P78352 155-259): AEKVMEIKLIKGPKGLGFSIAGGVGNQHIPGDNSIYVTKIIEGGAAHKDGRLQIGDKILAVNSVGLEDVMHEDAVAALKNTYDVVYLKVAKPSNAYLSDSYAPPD

Row | Binder | pKd
39 | QKNKDREYYV [NRXN3, Q9HDB5] | 3.67
40 | THREVKFTSL [CD46, P15529] | 3.7

target: T9, NHERF3_3, Q5T2W1; experiment: holdup assay; parameters: key: below the threshold = too weak to quantify, mostly under pKd 3.1 to 4; settings: plain residues with an end cap or a label only (N-terminal biotin on a linker: ado-ado)

Row | Binder | pKd
41 | QKNKDREYYV [NRXN3, Q9HDB5] | below the threshold
42 | THREVKFTSL [CD46, P15529] | below the threshold

target: T10, GRIP1_3, Q9Y3R0; experiment: holdup assay; parameters: key: below the threshold = too weak to quantify, mostly under pKd 3.1 to 4; settings: plain residues with an end cap or a label only (N-terminal biotin on a linker: ado-ado)

Row | Binder | pKd
43 | QKNKDREYYV [NRXN3, Q9HDB5] | below the threshold
44 | THREVKFTSL [CD46, P15529] | below the threshold

target: T11, SYNJ2BP, P57105; experiment: holdup assay; parameters: key: below the threshold = too weak to quantify, mostly under pKd 3.1 to 4; settings: plain residues with an end cap or a label only (N-terminal biotin on a linker: ado-ado)

Row | Binder | pKd
45 | QKNKDREYYV [NRXN3, Q9HDB5] | below the threshold
46 | THREVKFTSL [CD46, P15529] | 4.59

target: DLG2_3, Q15700; experiment: holdup assay; parameters: key: below the threshold = too weak to quantify, mostly under pKd 3.1 to 4; settings: plain residues with an end cap or a label only (N-terminal biotin on a linker: ado-ado)

Row | Binder | pKd
47 | QKNKDREYYV [NRXN3, Q9HDB5] | below the threshold
48 | THREVKFTSL [CD46, P15529] | 4.38

target: NOS1, P29475; experiment: holdup assay; parameters: key: below the threshold = too weak to quantify, mostly under pKd 3.1 to 4; settings: plain residues with an end cap or a label only (N-terminal biotin on a linker: ado-ado)
Sequence (P29475 9-101): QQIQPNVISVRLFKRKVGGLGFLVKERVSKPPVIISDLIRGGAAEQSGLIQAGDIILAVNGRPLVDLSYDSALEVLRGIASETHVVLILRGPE

Row | Binder | pKd
49 | QKNKDREYYV [NRXN3, Q9HDB5] | 4.11
50 | THREVKFTSL [CD46, P15529] | 3.75

target: T12, MPP2, Q14168; experiment: holdup assay; parameters: key: below the threshold = too weak to quantify, mostly under pKd 3.1 to 4; settings: plain residues with an end cap or a label only (N-terminal biotin on a linker: ado-ado)

Row | Binder | pKd
51 | QKNKDREYYV [NRXN3, Q9HDB5] | 4.39
52 | THREVKFTSL [CD46, P15529] | below the threshold
